Assays:
Test in all cases: two-hybrid; LexA-Cdc1 bait (pBTM116 or pBTM116BN) with Gal4-Pol3 prey and co-expressed c-myc-tagged Cdc27 (pAA-Cdc27) in S. cerevisiae CTY10-5d; ONPG liquid culture beta-galactosidase assay, mean of triplicates, as percent of wild-type Cdc1
Settings in all cases: partners not purified
[1] = molecular target: T1, Cdc1-J4 (Schizosaccharomyces pombe, UniProt P87324 1-462, Ile-GlyValProArgIle-Asp)
T1 construct: Cdc1, S. pombe, with a pentapeptide inserted after residue 127; also called J5; J13; source: yeast two-hybrid fusion, in S. cerevisiae CTY10-5d
T1 sequence (looked up): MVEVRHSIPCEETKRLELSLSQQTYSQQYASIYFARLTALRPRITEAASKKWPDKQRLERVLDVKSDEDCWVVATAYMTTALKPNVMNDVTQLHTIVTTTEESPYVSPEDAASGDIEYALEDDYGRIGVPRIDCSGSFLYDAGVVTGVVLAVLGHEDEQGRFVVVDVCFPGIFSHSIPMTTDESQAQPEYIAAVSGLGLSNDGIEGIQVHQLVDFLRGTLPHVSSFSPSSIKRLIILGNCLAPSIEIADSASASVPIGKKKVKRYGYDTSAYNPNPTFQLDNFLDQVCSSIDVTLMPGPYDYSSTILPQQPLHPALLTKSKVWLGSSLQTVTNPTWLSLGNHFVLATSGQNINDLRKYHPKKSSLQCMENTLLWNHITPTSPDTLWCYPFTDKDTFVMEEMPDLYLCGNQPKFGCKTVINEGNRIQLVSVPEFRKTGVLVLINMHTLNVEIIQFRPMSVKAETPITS

[2] = molecular target: T2, Cdc1-J15 (Schizosaccharomyces pombe, UniProt P87324 1-462, Gln-GlyValProLeuGln-Val)
T2 construct: Cdc1, S. pombe, with a pentapeptide inserted after residue 203; source: yeast two-hybrid fusion, in S. cerevisiae CTY10-5d
T2 sequence (looked up): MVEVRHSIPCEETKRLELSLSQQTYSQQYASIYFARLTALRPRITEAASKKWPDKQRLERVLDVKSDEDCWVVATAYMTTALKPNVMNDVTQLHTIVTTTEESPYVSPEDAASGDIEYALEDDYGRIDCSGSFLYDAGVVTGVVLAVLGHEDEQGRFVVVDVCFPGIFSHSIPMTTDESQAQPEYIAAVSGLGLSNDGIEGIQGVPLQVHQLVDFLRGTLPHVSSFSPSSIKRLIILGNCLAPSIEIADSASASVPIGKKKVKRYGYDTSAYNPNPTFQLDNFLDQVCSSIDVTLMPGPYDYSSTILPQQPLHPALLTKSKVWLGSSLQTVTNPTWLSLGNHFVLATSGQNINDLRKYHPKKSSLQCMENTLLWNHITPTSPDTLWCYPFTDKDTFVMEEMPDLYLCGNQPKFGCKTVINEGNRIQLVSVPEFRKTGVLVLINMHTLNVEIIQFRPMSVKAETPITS

[3] = molecular target: T3, Cdc1-A1 (Schizosaccharomyces pombe, UniProt P87324 1-462, Pro292Ala)
T3 construct: Cdc1, S. pombe, point mutant; source: yeast two-hybrid fusion, in S. cerevisiae CTY10-5d
T3 sequence (looked up): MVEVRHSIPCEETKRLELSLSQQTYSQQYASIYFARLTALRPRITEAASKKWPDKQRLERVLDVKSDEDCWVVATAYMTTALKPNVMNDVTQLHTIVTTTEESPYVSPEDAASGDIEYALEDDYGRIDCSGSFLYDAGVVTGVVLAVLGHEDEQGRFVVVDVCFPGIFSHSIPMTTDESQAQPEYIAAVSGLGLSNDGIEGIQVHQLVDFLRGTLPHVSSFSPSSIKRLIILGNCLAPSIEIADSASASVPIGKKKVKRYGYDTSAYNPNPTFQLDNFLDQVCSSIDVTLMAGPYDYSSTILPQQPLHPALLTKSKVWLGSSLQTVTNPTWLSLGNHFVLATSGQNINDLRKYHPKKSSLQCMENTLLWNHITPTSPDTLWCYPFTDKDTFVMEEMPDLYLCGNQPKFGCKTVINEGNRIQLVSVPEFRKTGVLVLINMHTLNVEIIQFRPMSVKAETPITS

[4] = molecular target: T4, Cdc1-J2 (Schizosaccharomyces pombe, UniProt P87324 1-462, Tyr-ArgGlyThrProTyr-Ser)
T4 construct: Cdc1, S. pombe, with a pentapeptide inserted after residue 25; also called J18; J20; source: yeast two-hybrid fusion, in S. cerevisiae CTY10-5d
T4 sequence (looked up): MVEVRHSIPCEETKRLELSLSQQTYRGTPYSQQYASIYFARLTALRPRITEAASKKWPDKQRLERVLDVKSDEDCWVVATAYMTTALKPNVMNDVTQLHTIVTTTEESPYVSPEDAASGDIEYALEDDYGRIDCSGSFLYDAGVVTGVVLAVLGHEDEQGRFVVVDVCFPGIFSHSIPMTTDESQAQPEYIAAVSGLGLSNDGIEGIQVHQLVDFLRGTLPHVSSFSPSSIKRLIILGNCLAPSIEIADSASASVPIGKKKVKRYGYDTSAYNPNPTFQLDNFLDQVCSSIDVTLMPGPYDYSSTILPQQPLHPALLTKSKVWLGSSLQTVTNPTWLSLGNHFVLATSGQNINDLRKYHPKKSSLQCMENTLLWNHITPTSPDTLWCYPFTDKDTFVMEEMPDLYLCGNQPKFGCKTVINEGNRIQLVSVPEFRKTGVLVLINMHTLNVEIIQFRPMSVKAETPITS

B1: Pol3 (fission yeast DNA polymerase delta catalytic subunit) (natural protein, Schizosaccharomyces pombe, UniProt P30316 1-1086, looked up)
chain: MTDRSSNEGVVLNKENYPFPRRNGSIHGEITDVKRRRLSERNGYGDKKGSSSKEKTSSFEDELAEYASQLDQDEIKSSKDQQWQRPALPAINPEKDDIYFQQIDSEEFTEGSVPSIRLFGVTDNGNSILVHVVGFLPYFYVKAPVGFRPEMLERFTQDLDATCNGGVIDHCIIEMKENLYGFQGNEKSPFIKIFTTNPRILSRARNVFERGEFNFEELFPVGVGVTTFESNTQYLLRFMIDCDVVGMNWIHLPASKYQFRYQNRVSNCQIEAWINYKDLISLPAEGQWSKMAPLRIMSFDIECAGRKGVFPDPSIDPVIQIASIVTQYGDSTPFVRNVFCVDTCSQIVGTQVYEFQNQAEMLSSWSKFVRDVDPDVLIGYNICNFDIPYLLDRAKSLRIHNFPLLGRIHNFFSVAKETTFSSKAYGTRESKTTSIPGRLQLDMLQVMQRDFKLRSYSLNAVCSQFLGEQKEDVHYSIITDLQNGTADSRRRLAIYCLKDAYLPQRLMDKLMCFVNYTEMARVTGVPFNFLLARGQQIKVISQLFRKALQHDLVVPNIRVNGTDEQYEGATVIEPIKGYYDTPIATLDFSSLYPSIMQAHNLCYTTLLDSNTAELLKLKQDVDYSVTPNGDYFVKPHVRKGLLPIILADLLNARKKAKADLKKETDPFKKAVLDGRQLALKVSANSVYGFTGATNGRLPCLAISSSVTSYGRQMIEKTKDVVEKRYRIENGYSHDAVVIYGDTDSVMVKFGVKTLPEAMKLGEEAANYVSDQFPNPIKLEFEKVYFPYLLISKKRYAGLFWTRTDTYDKMDSKGIETVRRDNCPLVSYVIDTALRKMLIDQDVEGAQLFTKKVISDLLQNKIDMSQLVITKALSKTDYAAKMAHVELAERMRKRDAGSAPAIGDRVAYVIIKGAQGDQFYMRSEDPIYVLENNIPIDAKYYLENQLSKPLLRIFEPILGEKASSLLHGDHTRTISMAAPSVGGIMKFAVKVETCLGCKAPIKKGKTALCENCLNRSAELYQRQVAQVNDLEVRFARLWTQCQRCQGSMHQDVICTSRDCPIFYMRIAEHKKLQQSVDLLKRFDEMSW
notes: DNA polymerase delta catalytic subunit Pol3, S. pombe; prey plasmid named pACT-Pol3 in the results and pGAD2F-Pol3 in the methods; also called Gal4-Pol3; pACT-Pol3; source: yeast two-hybrid fusion, in S. cerevisiae CTY10-5d
- two-hybrid beta-galactosidase activity, % of wild-type Cdc1 [1]: 36%
- two-hybrid beta-galactosidase activity, % of wild-type Cdc1 [2]: 1%
- two-hybrid beta-galactosidase activity, % of wild-type Cdc1 [3]: 39%
- two-hybrid beta-galactosidase activity, % of wild-type Cdc1 [4]: 46%
